According to article PMC6450391 (Nature immunology, 2019):

Biological target: T1, 1CARD-SUMO (caspase-1 CARD with carboxy-terminal SUMO, after TEV cleavage of MBP-1CARD-SUMO) (human, UniProt P29466 1-91)
T1 sequence (looked up): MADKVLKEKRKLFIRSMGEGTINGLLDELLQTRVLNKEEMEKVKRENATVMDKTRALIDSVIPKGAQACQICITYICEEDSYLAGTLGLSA
Experiment: cross-linking

B1: SERPINB1, purified, amino-terminal SUMO cleaved (natural protein, human, UniProt P30740 1-379, looked up)
chain: MEQLSSANTRFALDLFLALSENNPAGNIFISPFSISSAMAMVFLGTRGNTAAQLSKTFHFNTVEEVHSRFQSLNADINKRGASYILKLANRLYGEKTYNFLPEFLVSTQKTYGADLASVDFQHASEDARKTINQWVKGQTEGKIPELLASGMVDNMTKLVLVNAIYFKGNWKDKFMKEATTNAPFRLNKKDRKTVKMMYQKKKFAYGYIEDLKCRVLELPYQGEELSMVILLPDDIEDESTGLKKIEEQLTLEKLHEWTKPENLDFIEVNVSLPRFKLEESYTLNSDLARLGVQDLFNSSKADLSGMSGARDIFISKIVHKSFVEVNEEGTEAAAATAGIATFCMLMPEENFTADHPFLFFIRHNSSGSILFLGRFSSP
fold decrease in 1CARD oligomer with SERPINB1 against without SERPINB1: 4.18 fold
fold increase in 1CARD monomer with SERPINB1 against without SERPINB1: 7.48 fold
